Results from patent publication US20240309116A1 (ZHEJIANG SHIMAI PHARMACEUTICAL, published 2024).

B1: anti-ROR1 3A3 Fab (Fab, V domains shown)
VH: EVQLVESGGGVVQPGRSLRLSCAASGFTFSSYGMHWVRQAPGKGLEWVAVISYDGSNKYYADSVKGRFTISRDNSKNTLYLQMNSLRAEDTAVYYCAKDLDYSLWFDPWGQGTLVTVSS
VL: DVVMTQSPLSLPVTPGEPASISCRSSQSLLQSNGYNYVEWFLQKPGQSPQLLIYLGSYRASGVPDRFSGSGSGTDFTLKISRVEAEDVGVYYCMQGTHWPLFTFGPGTKVDIK
notes: Human Fab from a phage library, kappa light chain, hexahistidine-tagged, expressed in E. coli HB2151; detected with an anti-FLAG antibody; also called Fab clone 3A3
B2: anti-ROR1 monoclonal antibody 3A3 (antibody, V domains shown)
VH: B1 VH
VL: DVVMTQSPLSLPVTPGEPASISCRSSQSLLQSNGYNYVEWFLQKPGQSPQLLIYLGSYRASGVPDRFSGSGSGTDFTLKISRVEAEDVGVYYCMQGTHWPLFTFGPGTKVDIKR
notes: Intact human IgG1 kappa (Fd of the Fab fused to human IgG1 Fc), about 150 kDa non-reduced; also called 3A3 mAb; 3A3 Mab
B3: anti-ROR1 2H3 Fab (Fab, V domains shown)
VH: QVQLVQSGAEVKKTGSSVKVSCKASGYTFTYRYLHWVRQAPGQALEWMGWITPFNGNTNYAQKFQDRVTITRDRSMSTAYMELSSLRSEDTAMYYCARSGPRGDYVLDYWGQGTLVTVSS
VL: EIVLTQSPATLSLSPGERATLSCRASQSVSSYLAWYQQKPGQAPRLLIYDASNRATGIPARFSGSGSGTDFTLTISSLEPEDFAVYYCQQRSNWPLTFGGGTKVEIK
notes: Human Fab from a phage library, kappa light chain, hexahistidine-tagged, expressed in E. coli HB2151; also called Fab clone 2H3
B4: anti-ROR1 monoclonal antibody 2H3 (antibody, V domains shown)
VH: B3 VH
VL: EIVLTQSPATLSLSPGERATLSCRASQSVSSYLAWYQQKPGQAPRLLIYDASNRATGIPARFSGSGSGTDFTLTISSLEPEDFAVYYCQQRSNWPLTFGGGTKVEIKR
notes: Intact human IgG1 kappa (Fd of the Fab fused to human IgG1 Fc), about 150 kDa non-reduced; also called 2H3 mAb; 2H3 Mab

Tests used:
[1] = molecular target: T1, recombinant human ROR1 (full-length extracellular domain) (human, UniProt Q01973 30-406); test: ELISA, ROR1 coated on the plate, Fab detected with HRP anti-FLAG antibody
T1 construct: extracellular domain; Bought protein; also called human ROR1 protein; full extracellular domain
T1 sequence (Q01973 30-406): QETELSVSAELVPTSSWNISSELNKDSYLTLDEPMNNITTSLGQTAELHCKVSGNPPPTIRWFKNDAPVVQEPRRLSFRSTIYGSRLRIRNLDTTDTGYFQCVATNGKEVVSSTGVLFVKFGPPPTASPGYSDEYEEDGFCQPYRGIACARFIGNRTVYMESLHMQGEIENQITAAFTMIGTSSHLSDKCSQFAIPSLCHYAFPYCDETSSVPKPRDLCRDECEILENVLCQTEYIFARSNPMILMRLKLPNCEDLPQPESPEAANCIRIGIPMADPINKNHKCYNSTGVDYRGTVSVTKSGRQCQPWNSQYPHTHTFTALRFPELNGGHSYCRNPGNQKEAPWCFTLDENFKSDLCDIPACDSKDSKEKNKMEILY
Protocol: The hexahistidine-tagged Fabs 2H3 and 3A3 were expressed in E. coli strain HB2151 and purified from the soluble fraction of periplasm by using the Ni-NTA resin. Then ELISA was performed by using standard protocols to measure binding affinity to recombinant human ROR1 (full-length extracellular domain). Briefly, the recombinant human ROR1 (ACROBiosystems) was coated on Corning EIA/RIA high-binding 96-well plates (Corning Inc.) at 50 ng per well overnight at 4° C. and blocked with 3% nonfat milk in PBS (pH7.4). Fivefold serially diluted antibodies were added and incubated at room temperature for 2 h. The plates were washed with PBS containing 0.05% Tween 20. Bound antibodies were detected by HRP-conjugated anti-FLAG tag antibody (Sino Biological). The assay was developed at room temperature with TMB substrate (Solarbio) and OD value was measured at 450 nm with a microplate reader.

[2] = molecular target: T2, human ROR1 (39-151, Ig-like domain) protein (human, UniProt Q01973 39-151); test: ELISA, antigen coated on the plate, biotinylated antibody detected with HRP streptavidin
T2 construct: range 39-151; Bought protein; also called Ig-like domain of ROR1
T2 sequence (Q01973 39-151 limits assumed, form in doubt): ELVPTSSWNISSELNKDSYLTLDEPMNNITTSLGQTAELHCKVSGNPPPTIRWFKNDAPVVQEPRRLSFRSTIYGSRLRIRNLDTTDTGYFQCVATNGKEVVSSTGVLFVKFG
Protocol: (§1) ELISA was performed according to standard protocols, to determine binding affinity of anti-ROR1 mAB 2H3 and 3A3 to full extracellular domain and individual extracellular Ig-like domain, frizzled domain, and kringle domain of human ROR1. Briefly, recombinant human ROR1 (AcroBiosystems) were coated on Corning EIA/RIA high-binding 96-well plates (Corning Inc.) at 50 ng per well overnight at 4° C. and blocked with 3% nonfat milk in PBS (pH7.4). Fivefold serially diluted biotinylated antibodies were added and incubated at room temperature for 2 h. The plates were washed with PBS containing 0.05% Tween 20. Bound antibodies were detected by HRP-conjugated streptavidin (Sino Biological). The assay was developed at room temperature with TMB substrate (Solarbio) and monitored at 450 nm with a microplate reader. The half-maximal binding (EC₅₀) was calculated by fitting the data to the Langmuir adsorption isotherm.

[3] = molecular target: T1, recombinant human ROR1 (full-length …); test: as above
Protocol: as §1

[4] = molecular target: T3, human/Cynomolgus/Rhesus macaque ROR1 (308-395, Kringle domain) protein (human/Cynomolgus/Rhesus macaque, UniProt Q01973 308-395); test: as above
T3 construct: range 308-395; Bought protein; also called kringle domain of ROR1
T3 sequence (Q01973 308-395 limits assumed, form in doubt): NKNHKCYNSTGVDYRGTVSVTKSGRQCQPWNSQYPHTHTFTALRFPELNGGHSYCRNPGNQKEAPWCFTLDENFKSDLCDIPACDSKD
Protocol: as §1

Binder | EC50 [1] | EC50 [2] | EC50 [3] | EC50 [4]
B1 | ~36 nM | – | – | –
B2 | – | 3.1 nM | 0.18 nM | –
B3 | ~16 nM | – | – | –
B4 | – | – | 0.2 nM | 1.2 nM
